Consider nine compounds from paper PMC3478282, “Probing the Putative Active Site of YjdL: An Unusual Proton-Coupled Oligopeptide Transporter from E. coli” (PLoS ONE, 2012).

Among the targets are YjdL Tyr113Phe (E. coli) (UniProt P39276); YjdL Tyr21Phe (E. coli) (UniProt P39276); YjdL Tyr58Phe (E. coli) (UniProt P39276); YjdL-Trp278Phe (E. coli) (UniProt P39276).
A further test addresses T1, WT-YjdL (Escherichia coli, UniProt P39276).
T1 construct: expressed in transfected cells; host or cells: E. coli BL21(DE3)pLysS, pTTQ18-yjdL, IPTG-induced
T1 sequence (P39276 1-485): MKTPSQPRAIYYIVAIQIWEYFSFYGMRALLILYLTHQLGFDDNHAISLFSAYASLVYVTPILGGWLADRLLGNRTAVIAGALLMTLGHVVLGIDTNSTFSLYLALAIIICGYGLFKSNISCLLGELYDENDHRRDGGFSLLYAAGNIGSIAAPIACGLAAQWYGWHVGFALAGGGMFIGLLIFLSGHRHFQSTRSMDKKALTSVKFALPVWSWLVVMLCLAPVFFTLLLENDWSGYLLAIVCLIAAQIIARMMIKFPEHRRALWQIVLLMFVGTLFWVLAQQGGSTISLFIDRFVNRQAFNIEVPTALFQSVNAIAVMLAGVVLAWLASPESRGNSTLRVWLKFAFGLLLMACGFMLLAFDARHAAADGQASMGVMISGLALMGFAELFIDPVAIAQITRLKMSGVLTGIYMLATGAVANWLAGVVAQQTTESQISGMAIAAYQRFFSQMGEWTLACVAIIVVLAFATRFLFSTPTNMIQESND
Kind of test: cell-based. The note with it: for IC50: IC50 (inhibition of β-Ala-Lys(AMCA) uptake), WT-YjdL a. In kind it is cell-based, E. coli. Here is the method:
(§1) Plasmids were transformed into E. coli BL21(DE3)pLysS cells by heat shock and transformants were selected on agar plates containing 100 µg/mL ampicillin and 34 µg/mL chloramphenicol. Single transformants were inoculated into 2 mL LB-media with antibiotics as above and grown overnight. The cultures were diluted 1∶50 in 5 mL LB-media with antibiotics as above, and at an OD600 of 0.5–0.8 protein expression was induced by the addition of 1 mM isopropyl β-D-1-thiogalactopyranoside (IPTG). […]
(§2) Uptake assays were performed as previously described, [20]. In a final assay volume of 100 µL; 0.2 mM β-Ala-Lys-N-7-amino-4-methylcoumarin-3-acetic acid (β-Ala-Lys(AMCA), Biotrend) (10 µL) and various concentrations of ligands (purchased from Bachem or Sigma-Aldrich) or uptake buffer (50 µL) were incubated with bacterial cell suspension (OD600 = 10, 40 µL) at 37°C. After 5 min, the uptake was stopped by addition of 500 µL ice-cold uptake buffer followed by immediate centrifugation and washing twice in ice-cold uptake buffer. Finally the cell pellet was resuspended in 100 µL uptake buffer, and the uptake was quantified by fluorescence measurements (excitation at 340 nm and emission at 460 nm) on a Safire 2 fluorimeter. Non-specific uptake was measured as described above on IPTG-induced E. coli BL21(DE3)pLysS cells harboring the empty pTTQ18 vector. All uptake assay experiments were reproduced at least three times independently and data analyses were performed using GraphPad Prism ver. 5.

The next test has as its target T2, YjdL Tyr25Phe (Escherichia coli, UniProt P39276, Y25F).
T2 construct: expressed in transfected cells; host or cells: E. coli BL21(DE3)pLysS, pTTQ18-yjdL mutant (QuikChange)
T2 sequence (P39276 1-485 Y25F): T1 sequence (P39276 1-485) with Y25F
Kind of test: β-Ala-Lys(AMCA) uptake and inhibition assay, YjdL Tyr25Phe. In kind it is cell-based, E. coli. As to conditions: 0.2 mM β-Ala-Lys(AMCA), 5 min incubation, pH 6.5; ±SEM, n≥3. Here is the method:
(§3) Plasmids were transformed into E. coli BL21(DE3)pLysS cells by heat shock and transformants were selected on agar plates containing 100 µg/mL ampicillin and 34 µg/mL chloramphenicol. Single transformants were inoculated into 2 mL LB-media with antibiotics as above and grown overnight. The cultures were diluted 1∶50 in 5 mL LB-media with antibiotics as above, and at an OD600 of 0.5–0.8 protein expression was induced by the addition of 1 mM isopropyl β-D-1-thiogalactopyranoside (IPTG). The cells were harvested after three hours of induction by centrifugation and resuspended in uptake buffer (50 mM MES pH 6.5, 140 mM NaCl, 5.4 mM KCl, 1.8 mM CaCl2, 0.8 mM MgSO4, and 5 mM glucose).
as §2

The target of another test is T3, YjdL Ala281Phe (Escherichia coli, UniProt P39276, A281F).
T3 construct: host or cells: E. coli BL21(DE3)pLysS
T3 sequence (P39276 1-485 A281F): T1 sequence (P39276 1-485) with A281F
Kind of test: β-Ala-Lys(AMCA) uptake and inhibition assay, YjdL Ala281Phe. The note with it: for IC50: 0.2 mM β-Ala-Lys(AMCA), 5 min incubation, pH 6.5, ±SEM, n≥3. Type of test: cell-based, E. coli. On the procedure:
as §3, §2

The target in test [1] is YjdL Tyr25Phe (E. coli) (UniProt P39276).
Test [2] addresses YjdL from E. coli, wild type (E. coli) (UniProt P39276).
In test [3] the target is YjdL-Ala281Phe (E. coli) (UniProt P39276).
Test [4] has as its target YjdL from E. coli, wild type (E. coli) (UniProt P39276). The source holds these as a separate data set.
Test [5] has as its target YjdL Tyr25Phe (E. coli) (UniProt P39276). The source holds these as a separate data set.
Test [6] deals with YjdL from E. coli, wild type (E. coli) (UniProt P39276). This is another data set of the same source.
The target of test [7] is YjdL-Ala281Phe (E. coli) (UniProt P39276). The source holds these as a separate data set.
The next test concerns the target T4, WT-YdgR (Escherichia coli, UniProt P77304).
T4 construct: expressed in transfected cells; host or cells: E. coli BL21(DE3)pLysS, pTTQ18-ydgR, IPTG-induced
T4 sequence (P77304 1-500): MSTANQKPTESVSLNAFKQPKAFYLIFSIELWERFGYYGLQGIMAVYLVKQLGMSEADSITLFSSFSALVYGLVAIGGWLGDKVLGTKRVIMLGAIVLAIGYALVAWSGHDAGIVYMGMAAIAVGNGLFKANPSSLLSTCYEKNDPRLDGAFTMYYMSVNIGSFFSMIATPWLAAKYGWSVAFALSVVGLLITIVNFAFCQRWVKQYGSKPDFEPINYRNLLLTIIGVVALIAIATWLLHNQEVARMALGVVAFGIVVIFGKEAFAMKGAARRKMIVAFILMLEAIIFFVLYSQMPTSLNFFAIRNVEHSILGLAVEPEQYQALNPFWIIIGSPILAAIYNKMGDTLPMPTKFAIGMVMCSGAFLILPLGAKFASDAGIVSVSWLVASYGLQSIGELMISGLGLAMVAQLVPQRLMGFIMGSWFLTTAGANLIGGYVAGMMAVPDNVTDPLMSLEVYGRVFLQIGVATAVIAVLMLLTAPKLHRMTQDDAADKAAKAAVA
In words: cell-based. In kind it is cell-based, E. coli. The note with it: 25 mM Tris-HCl, 50 mM MOPS pH 7.4, 0.2 mM β-Ala-Lys(AMCA), 5 min. On the procedure: as §1, §2

Changes are numbered by the printed parent chain. Like-named read-outs stand apart in the source and are kept apart here. Residues, ends and D or L forms follow the SMILES beside them.

In general, IC50 refers to the midpoint of a concentration-inhibition curve. For `CSCC[C@H](N)C(=O)N[C@@H](CCCCN)C(=O)O` [Met-Lys] (H-Met-Lys-OH), on WT-YjdL, the “increase of IC50 compared to the Ala-Lys value, WT-YjdL” value (“increase of IC50” for short) is reported as “approximately 2 fold”. Further, the IC50 against WT-YjdL amounted to 530 ± 30 µM; against YjdL Tyr25Phe, 610 ± 20 µM; at YjdL Ala281Phe, 170 ± 10 µM.

As for `NCCCC[C@H](NC(=O)[C@@H](N)Cc1c[nH]c2ccccc12)C(=O)O` [Trp-Lys] (H-Trp-Lys-OH), the “increase of IC50” value on WT-YjdL is reported as “approximately 2 fold”. Moreover, the IC50 against WT-YjdL amounted to 600 ± 70 µM; against YjdL Tyr25Phe, 580 ± 60 µM; against YjdL Ala281Phe it was 90 ± 10 µM.

As for `NCCCC[C@H](NC(=O)[C@@H](N)Cc1ccc(O)cc1)C(=O)O` [Tyr-Lys] (H-Tyr-Lys-OH), at WT-YjdL, the “increase of IC50” value is “approximately 2 fold” and the IC50 came out at 550 ± 40 µM. At YjdL Tyr25Phe, this compound displayed an IC50 of 670 ± 80 µM. For the same compound, at YjdL Ala281Phe, the “decrease of IC50 compared to Ala-Lys, Ala281Phe” value is on record as “approximately 10 fold” and it took 30 µM to reach half-maximal inhibition (IC50).

In the case of Ala-Gln (peptide), the IC50 of inhibition of β-Ala-Lys(AMCA) uptake into E. coli cells (0.2 mM substrate, 5 min, pH 6.5) with YjdL Tyr113Phe (E. coli) was found to be 1.1 mM; with YjdL Tyr21Phe (E. coli), 1.1 mM; with YjdL Tyr25Phe (E. coli) [1], 36.1 mM; in test [2], 0.6 mM; with YjdL-Ala281Phe (E. coli) [3], 21.7 mM; with YjdL-Trp278Phe (E. coli) it was 0.9 mM. For the same compound, the IC50 of inhibition of β-Ala-Lys(AMCA) uptake into E. coli cells (0.5 mM substrate, 15 min, pH 6.5) with YjdL Tyr58Phe (E. coli) was 2.5 mM; in test [2], 1.9 mM. Further, in test [4], the β-Ala-Lys(AMCA) uptake (0.5 mM) left with 50 mM competitor, E. coli cells, pH 6.5 is < 10%.

For the compound Met-Lys (peptide), the IC50 of inhibition of β-Ala-Lys(AMCA) uptake into E. coli cells (0.2 mM substrate, 5 min, pH 6.5) with YjdL Tyr25Phe (E. coli) [5] is 0.61 mM; in test [6], 0.53 mM; in the test with YjdL-Ala281Phe (E. coli) [7] it was 0.17 mM.

As for Tris, the “inhibition of β-Ala-Lys(AMCA) uptake, WT-YdgR” value on WT-YdgR was “no significant inhibition”. The “inhibition of β-Ala-Lys(AMCA) uptake, WT-YjdL” value on WT-YjdL (25 mM Tris-HCl, 50 mM MOPS pH 7.4, 0.2 mM β-Ala-Lys(AMCA), 5 min) was “weak”.

On to Trp-Lys (peptide), for which the IC50 of inhibition of β-Ala-Lys(AMCA) uptake into E. coli cells (0.2 mM substrate, 5 min, pH 6.5) with YjdL Tyr25Phe (E. coli) [5] turned out to be 0.58 mM; in test [6], 0.6 mM; with YjdL-Ala281Phe (E. coli) [7], 0.09 mM.

Regarding Tyr-Ala (peptide), the IC50 of inhibition of β-Ala-Lys(AMCA) uptake into E. coli cells (0.2 mM substrate, 5 min, pH 6.5) was found to be 1.3 mM in the test with YjdL Tyr113Phe (E. coli); 4.7 mM with YjdL Tyr21Phe (E. coli); 33.7 mM in the test with YjdL Tyr25Phe (E. coli) [1]; 2.4 mM in test [2]; 33.2 mM with YjdL-Ala281Phe (E. coli) [3]; 2.8 mM in the test with YjdL-Trp278Phe (E. coli). The IC50 of inhibition of β-Ala-Lys(AMCA) uptake into E. coli cells (0.5 mM substrate, 15 min, pH 6.5) is 24.1 mM with YjdL Tyr58Phe (E. coli) and 2.4 mM in test [2]. Also, the β-Ala-Lys(AMCA) uptake (0.5 mM) left with 50 mM competitor, E. coli cells, pH 6.5 in test [4] was < 10%.

In the case of Tyr-Lys (peptide), the IC50 of inhibition of β-Ala-Lys(AMCA) uptake into E. coli cells (0.2 mM substrate, 5 min, pH 6.5) came to 0.67 mM in the test with YjdL Tyr25Phe (E. coli) [5], 0.55 mM in test [6] and 0.03 mM with YjdL-Ala281Phe (E. coli) [7].
